In data set [1] the target is T1, FRET peptide MCA-ATDHGSES-Lys DNP (no RA motif).
T1 chain: ATDHGSES

For data set [2], the target named is T2, OPA1 FRET substrate MCA-AFRATDHG-DNP.
T2 chain: AFRATDHG

B1: Metalloendopeptidase OMA1 (OMA1), endogenous enzyme in normal rat kidney (NRK-52E) cell lysate (protein)
chain: AAPVPLLMLILKPVQKLLAIIVGRGIRKWWQALPPDKKALFKDSVKRNKWRLLLGLSAFGLLFVVFYFTHLEVSPVTGRSKLLLVGKEHFRLLSDLEYEVWMEEFKNDLLPEEDPRYLTVKKVVYHLTQCNQDVPGVSEINWVVHVVHSPKVNAFVLPNGQVFVFTGLLNSVTDMHQLSFLLGHEIAHAVLGHAAEKASLVHLLDFLGMIFLTMIWAICPRDSLAVLGQWIQSKLQEYMFDRPYSRTLEAEADKIGLQLAAKACVDVRASSVFWQQMEFSESLHGYPKLPEWLSTHPSHGNRAEYLDRLIPQALKLREVCNCPPLSGPDPRLLFRLTVKHLLEDSEKEDLNITVKKQKPDALPIQKQEQIPLTYALGKRTAG
B1: the “OMA1 Activity (average slope over 30 min compared to AFRATDHG substrate)” value in data set [1] was 2.71%; in data set [2], 100%.

The values above are taken from patent US20190049430.
